Data as given in article PMC9352680, “A comprehensive thermodynamic model for RNA binding by the Saccharomyces cerevisiae Pumilio protein PUF4”.
Positions count from the first letter of the chain named. Names may count otherwise.

T1: PUF4 RNA-binding domain (Saccharomyces cerevisiae, UniProt P25339 537-888)
T1 sequence: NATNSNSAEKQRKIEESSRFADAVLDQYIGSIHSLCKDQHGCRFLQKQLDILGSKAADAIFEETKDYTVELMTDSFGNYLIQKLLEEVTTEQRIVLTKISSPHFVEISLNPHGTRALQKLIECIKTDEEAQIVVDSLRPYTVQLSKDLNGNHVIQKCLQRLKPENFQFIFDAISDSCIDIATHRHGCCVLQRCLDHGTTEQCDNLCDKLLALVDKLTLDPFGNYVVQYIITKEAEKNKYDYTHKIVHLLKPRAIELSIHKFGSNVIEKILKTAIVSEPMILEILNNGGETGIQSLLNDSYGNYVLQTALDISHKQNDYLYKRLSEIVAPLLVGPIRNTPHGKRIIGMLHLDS

B1: Id_ii_S4_P3E.2_K3.1_C3.2_[C-2G]_[T-1G]_H3.1_A3.1_F3.1_T3.2_[T9A]_[A10G] (ssRNA)
RNA: UUUGACAACUGAUCGUUCUUUCUGGUGUAUAUAAGUUCUUUCUCGAUCAGUUGUCUUU
B2: Id_ii_S4_P3E.2_K3.1_C3.2_[C-2T]_[T-1G]_H3.1_A3.1_F3.1_T3.2_[T9A]_[A10T] (ssRNA)
RNA: B1 RNA with G24U, G35U
B3: Id_ii_S4_P3E.2_K3.1_C3.2_[C-2G]_[T-1C]_H3.1_A3.1_F3.1_T3.2_[T9C] (ssRNA)
RNA: B1 RNA with G25C, A34C, G35A
B4: Id_ii_S4_P3E.2_K3.1_C3.2_[C-2G]_[T-1G]_H3.1_A3.1_F3.1_T3.2_[A10T] (ssRNA)
RNA: B1 RNA with A34U, G35U
B5: Id_ii_S4_P3E.2_K3.1_C3.2_[C-2G]_H3.1_A3.1_F3.1_T3.2_[T9A]_[A10T] (ssRNA)
RNA: B1 RNA with G25U, G35U
B6: Id_ii_S4_P3E.2_K3.1_C3.2_[C-2G]_[T-1G]_H3.1_A3.1_F3.1_T3.2_[T9A]_[A10T] (ssRNA)
RNA: B1 RNA with G35U
B7: Id_ii_S4_P3E.2_K3.1_C3.2_[C-2G]_H3.1_A3.1_F3.1_T3.2 (ssRNA)
RNA: B1 RNA with G25U, A34U, G35A
B8: Id_ii_S4_P3E.2_K3.1_C3.2_[C-2G]_H3.1_A3.1_F3.1_T3.2_[T9C]_[A10C] (ssRNA)
RNA: B1 RNA with G25U, A34C, G35C
B9: Id_ii_S4_P3E.2_K3.1_C3.2_[C-2G]_[T-1C]_H3.1_A3.1_F3.1_T3.2_[T9C]_[A10C] (ssRNA)
RNA: B1 RNA with G25C, A34C, G35C

Target: T1, PUF4 RNA-binding domain
Assay: Mg; RNA-MaP; 20 mM Na-HEPES pH 7.4, 30 mM KOAc, 0.75 mM MgCl2, 0.1% Tween-20, 5% glycerol, 0.1 mg/mL BSA, 2 mM DTT; 25 C; 0.0125-409.6 nM protein
Settings: tags: N-His6-TEV cleaved; C-SNAP kept, Cy3B-labelled; label: tethered on chip by stalled RNA polymerase

ACAAACAGACACUUAUUAUUACAAAC (ssRNA) [Id_ii_S3_P5E.4_K5.3_C5.2_[C-2A]_[T-1G]_H5.3_A5.1_F5.1_T5.2_[A12T]] and ACAAACCGACACUUAUUAUAACAAAC (ssRNA) [Id_ii_S3_P5E.4_K5.3_C5.2_[T-1G]_H5.3_A5.1_F5.1_T5.2] cannot be ordered by Kd: greater than 2300 nM for the first, greater than 2300 nM for the second.

ACAAACAAACACUUAUUAUCACAAAC (ssRNA) [Id_ii_S3_P5E.4_K5.3_C5.2_[C-2A]_[T-1A]_H5.3_A5.1_F5.1_T5.2_[A12C]] and ACAAACCUACACUUAUUAACACAAAC (ssRNA) [Id_ii_S3_P5E.4_K5.3_C5.2_H5.3_A5.1_F5.1_T5.2_[T11A]_[A12C]] cannot be ordered by Kd: greater than 2300 nM for the first, greater than 2300 nM for the second.

ACAAACCUACACUUAUUAUUACAAAC (ssRNA) [Id_ii_S3_P5E.4_K5.3_C5.2_H5.3_A5.1_F5.1_T5.2_[A12T]] and ACAAACUCACACUUAUUAAAACAAAC (ssRNA) [Id_ii_S3_P5E.4_K5.3_C5.2_[C-2T]_[T-1C]_H5.3_A5.1_F5.1_T5.2_[T11A]] cannot be ordered by Kd: greater than 2300 nM for the first, greater than 2300 nM for the second.

ACAAACCGACACUUAUUACCACAAAC (ssRNA) [Id_ii_S3_P5E.4_K5.3_C5.2_[T-1G]_H5.3_A5.1_F5.1_T5.2_[T11C]_[A12C]] and ACAAACACACACUUAUUACUACAAAC (ssRNA) [Id_ii_S3_P5E.4_K5.3_C5.2_[C-2A]_[T-1C]_H5.3_A5.1_F5.1_T5.2_[T11C]_[A12T]] cannot be ordered by Kd: greater than 2300 nM for the first, greater than 2300 nM for the second.

ACAAACCUACACUUAUUAUGACAAAC (ssRNA) [Id_ii_S3_P5E.4_K5.3_C5.2_H5.3_A5.1_F5.1_T5.2_[A12G]] and ACAAACUUACACUUAUUAACACAAAC (ssRNA) [Id_ii_S3_P5E.4_K5.3_C5.2_[C-2T]_H5.3_A5.1_F5.1_T5.2_[T11A]_[A12C]] cannot be ordered by Kd: greater than 2300 nM for the first, greater than 2300 nM for the second.

ACAAACCUACACUUAUUAUCACAAAC (ssRNA) [Id_ii_S3_P5E.4_K5.3_C5.2_H5.3_A5.1_F5.1_T5.2_[A12C]] and ACAAACCCACACUUAUUAUAACAAAC (ssRNA) [Id_ii_S3_P5E.4_K5.3_C5.2_[T-1C]_H5.3_A5.1_F5.1_T5.2] cannot be ordered by Kd: greater than 2300 nM for the first, greater than 2300 nM for the second.

Compared with B1, B2 is 5.5-fold lower in Kd: 9.31 nM for the first, 1.68 nM for the second. The second binds more tightly here.

First: B3
Second: B4
The Kd of the first is 12-fold higher: 46.9 nM for the first, 3.9 nM for the second.

Compared with B5, B6 is 1.6-fold higher in Kd: 3.41 nM for the first, 5.5 nM for the second. The first binds more tightly here.

Compared with B7, B8 is 9.4-fold higher in Kd: 2.31 nM for the first, 21.8 nM for the second.

First: B9
Second: ACAAACAUACACUUAUUAAUACAAAC (ssRNA) [Id_ii_S3_P5E.4_K5.3_C5.2_[C-2A]_H5.3_A5.1_F5.1_T5.2_[T11A]_[A12T]]
The Kd of the first is lower: 10.5 nM for the first, greater than 2300 nM for the second. The first binds more tightly here.

ACAAACCAACACUUAUUACUACAAAC (ssRNA) [Id_ii_S3_P5E.4_K5.3_C5.2_[T-1A]_H5.3_A5.1_F5.1_T5.2_[T11C]_[A12T]] and ACAAACAGACACUUAUUAGAACAAAC (ssRNA) [Id_ii_S3_P5E.4_K5.3_C5.2_[C-2A]_[T-1G]_H5.3_A5.1_F5.1_T5.2_[T11G]] cannot be ordered by Kd: greater than 2300 nM for the first, greater than 2300 nM for the second.

First: UCUCUUUAUUUUAUUAUCUCUU (ssRNA) [Ib_S1_P5E.1_K5.1_C5.1_H5.1_[G2A]_[A4T]_A5.1_F5.1_T5.1]
Second: ACAAACCUACACUUAUUACUACAAAC (ssRNA) [Id_ii_S3_P5E.4_K5.3_C5.2_H5.3_A5.1_F5.1_T5.2_[T11C]_[A12T]]
The Kd of the first is lower: 1550 nM for the first, greater than 2300 nM for the second.

ACAAACUCACACUUAUUACAACAAAC (ssRNA) [Id_ii_S3_P5E.4_K5.3_C5.2_[C-2T]_[T-1C]_H5.3_A5.1_F5.1_T5.2_[T11C]] and ACAAACCCACACUUAUUACCACAAAC (ssRNA) [Id_ii_S3_P5E.4_K5.3_C5.2_[T-1C]_H5.3_A5.1_F5.1_T5.2_[T11C]_[A12C]] cannot be ordered by Kd: greater than 2300 nM for the first, greater than 2300 nM for the second.

ACAAACAGACACUUAUUACAACAAAC (ssRNA) [Id_ii_S3_P5E.4_K5.3_C5.2_[C-2A]_[T-1G]_H5.3_A5.1_F5.1_T5.2_[T11C]] and ACAAACCUACACUUAUUAAAACAAAC (ssRNA) [Id_ii_S3_P5E.4_K5.3_C5.2_H5.3_A5.1_F5.1_T5.2_[T11A]] cannot be ordered by Kd: greater than 2300 nM for the first, greater than 2300 nM for the second.
